# In article PMC6648896 (Nucleic Acids Research, 2019):
# B1: fluorescein-labeled E. coli σ^E (natural protein)
# chain: MSEQLTDQVLVERVQKGDQKAFNLLVVRYQHKVASLVSRYVPSGDVPDVVQEAFIKAYRALDSFRGDSAFYTWLYRIAVNTAKNYLVAQGRRPPSSDVDAIEAENFESGGALKEISNPENLMLSEELRQIVFRTIESLPEDLRMAITLRELDGLSYEEIAAIMDCPVGTVRSRIFRAREAIDNKVQPLIRR
# modifications: fluorescein at residue C165
# Target: E. coli RNAP core enzyme (E. coli, UniProt P0A7Z4;P0A8V2;P0A8T7;P0A800)
# Assay: fluorescence polarisation
# Chain of E. coli RNAP core enzyme (P0A7Z4 whole entry, chain 1 of 4): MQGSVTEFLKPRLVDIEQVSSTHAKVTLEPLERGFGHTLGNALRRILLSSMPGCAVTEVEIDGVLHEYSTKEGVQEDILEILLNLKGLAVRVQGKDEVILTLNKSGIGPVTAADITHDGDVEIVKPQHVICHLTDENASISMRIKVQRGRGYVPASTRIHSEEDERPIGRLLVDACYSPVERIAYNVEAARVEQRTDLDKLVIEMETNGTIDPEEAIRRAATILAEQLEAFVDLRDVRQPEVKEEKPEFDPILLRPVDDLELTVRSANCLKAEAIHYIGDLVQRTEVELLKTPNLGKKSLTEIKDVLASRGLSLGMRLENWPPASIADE
# Chain of E. coli RNAP core enzyme (P0A8V2 whole entry, chain 2 of 4): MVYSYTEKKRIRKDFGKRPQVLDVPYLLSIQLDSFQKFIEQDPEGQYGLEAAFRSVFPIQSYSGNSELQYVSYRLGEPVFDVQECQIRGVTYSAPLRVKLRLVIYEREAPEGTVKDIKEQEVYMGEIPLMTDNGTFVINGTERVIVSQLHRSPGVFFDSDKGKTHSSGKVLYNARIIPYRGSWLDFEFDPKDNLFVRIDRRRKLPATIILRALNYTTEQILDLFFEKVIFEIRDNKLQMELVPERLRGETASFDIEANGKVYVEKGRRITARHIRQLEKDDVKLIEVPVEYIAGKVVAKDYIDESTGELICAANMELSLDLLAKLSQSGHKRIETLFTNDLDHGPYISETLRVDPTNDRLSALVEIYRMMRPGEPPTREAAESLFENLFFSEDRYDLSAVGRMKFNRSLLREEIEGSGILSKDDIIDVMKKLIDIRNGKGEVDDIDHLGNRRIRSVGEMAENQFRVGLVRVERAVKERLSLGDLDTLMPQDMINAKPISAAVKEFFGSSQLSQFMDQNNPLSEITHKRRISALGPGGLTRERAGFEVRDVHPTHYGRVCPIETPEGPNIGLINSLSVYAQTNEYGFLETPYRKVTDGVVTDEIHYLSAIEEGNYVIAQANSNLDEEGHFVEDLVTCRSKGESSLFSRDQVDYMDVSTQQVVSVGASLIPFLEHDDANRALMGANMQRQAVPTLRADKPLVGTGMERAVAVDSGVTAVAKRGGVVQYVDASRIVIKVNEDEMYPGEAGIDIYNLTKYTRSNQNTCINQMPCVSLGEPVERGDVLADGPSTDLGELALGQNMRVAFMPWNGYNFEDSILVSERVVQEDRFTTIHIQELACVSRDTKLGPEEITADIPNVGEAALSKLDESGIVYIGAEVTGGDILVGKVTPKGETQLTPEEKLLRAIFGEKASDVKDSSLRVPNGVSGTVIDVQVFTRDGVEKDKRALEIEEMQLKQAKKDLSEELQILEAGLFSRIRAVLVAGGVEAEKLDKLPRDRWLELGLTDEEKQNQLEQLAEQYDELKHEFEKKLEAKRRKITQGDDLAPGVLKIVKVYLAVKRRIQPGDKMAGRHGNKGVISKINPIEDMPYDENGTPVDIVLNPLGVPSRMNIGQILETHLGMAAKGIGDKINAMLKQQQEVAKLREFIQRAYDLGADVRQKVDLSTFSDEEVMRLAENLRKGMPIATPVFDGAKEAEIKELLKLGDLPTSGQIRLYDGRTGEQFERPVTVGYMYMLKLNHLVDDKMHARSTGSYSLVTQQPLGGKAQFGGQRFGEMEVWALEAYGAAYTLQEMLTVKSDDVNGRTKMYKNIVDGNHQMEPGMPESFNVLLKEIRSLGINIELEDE
# Chain of E. coli RNAP core enzyme (P0A8T7 whole entry, chain 3 of 4): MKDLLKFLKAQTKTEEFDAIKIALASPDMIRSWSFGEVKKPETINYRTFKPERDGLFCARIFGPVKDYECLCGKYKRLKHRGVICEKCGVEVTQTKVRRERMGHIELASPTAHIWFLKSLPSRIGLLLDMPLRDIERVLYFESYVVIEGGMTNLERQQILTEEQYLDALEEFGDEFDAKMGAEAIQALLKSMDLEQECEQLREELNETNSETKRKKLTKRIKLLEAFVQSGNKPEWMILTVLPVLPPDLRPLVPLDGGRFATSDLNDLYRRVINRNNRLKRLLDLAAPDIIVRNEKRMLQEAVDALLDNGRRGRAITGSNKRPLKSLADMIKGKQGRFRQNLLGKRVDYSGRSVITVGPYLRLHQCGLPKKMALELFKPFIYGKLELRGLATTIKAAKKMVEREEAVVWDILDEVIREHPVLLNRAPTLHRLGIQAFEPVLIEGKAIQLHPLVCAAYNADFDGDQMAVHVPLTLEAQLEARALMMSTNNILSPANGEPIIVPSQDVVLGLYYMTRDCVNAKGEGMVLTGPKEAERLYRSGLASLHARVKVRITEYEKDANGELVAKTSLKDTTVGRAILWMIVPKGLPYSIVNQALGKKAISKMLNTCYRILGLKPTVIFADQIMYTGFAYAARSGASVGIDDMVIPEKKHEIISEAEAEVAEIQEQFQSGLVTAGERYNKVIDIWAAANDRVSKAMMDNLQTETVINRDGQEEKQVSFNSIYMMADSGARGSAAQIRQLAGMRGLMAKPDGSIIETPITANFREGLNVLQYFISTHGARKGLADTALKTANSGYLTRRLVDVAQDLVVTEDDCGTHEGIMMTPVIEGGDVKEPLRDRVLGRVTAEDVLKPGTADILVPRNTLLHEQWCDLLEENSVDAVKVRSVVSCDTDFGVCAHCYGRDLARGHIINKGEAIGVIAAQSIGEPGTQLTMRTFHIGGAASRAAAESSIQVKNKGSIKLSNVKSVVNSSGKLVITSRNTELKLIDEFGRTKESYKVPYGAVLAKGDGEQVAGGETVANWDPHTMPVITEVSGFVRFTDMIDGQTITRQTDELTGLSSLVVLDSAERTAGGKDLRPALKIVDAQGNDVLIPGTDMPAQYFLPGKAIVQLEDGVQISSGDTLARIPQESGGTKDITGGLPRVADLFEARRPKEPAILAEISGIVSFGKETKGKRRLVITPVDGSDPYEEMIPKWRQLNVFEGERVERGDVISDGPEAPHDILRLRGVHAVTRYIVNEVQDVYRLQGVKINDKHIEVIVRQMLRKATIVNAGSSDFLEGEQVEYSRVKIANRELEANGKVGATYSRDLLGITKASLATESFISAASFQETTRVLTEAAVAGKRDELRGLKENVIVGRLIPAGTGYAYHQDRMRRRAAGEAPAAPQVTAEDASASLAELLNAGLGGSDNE
# Chain of E. coli RNAP core enzyme (P0A800 whole entry, chain 4 of 4): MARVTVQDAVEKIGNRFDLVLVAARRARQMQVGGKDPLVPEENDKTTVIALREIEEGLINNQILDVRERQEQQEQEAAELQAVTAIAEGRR
binder,measurement,value
B1,Kd,~53 nM
